The source of these data is paper PMC6889141, “In vivo methylation of OLA1 revealed by activity-based target profiling of NTMT1† †Electronic supplementary information (ESI) available. See DOI: 10.1039/c9sc02550b” (Chemical Science, 2019).

The assay has as its target T1, N-Terminal methyltransferase 1 (NTMT1), wild type (UniProt Q9BV86 1-223).
T1 construct: N-terminal methyltransferase 1 (NTMT1), wild type; they probably stand in the ESI; also called wt NTMT1
T1 sequence (looked up): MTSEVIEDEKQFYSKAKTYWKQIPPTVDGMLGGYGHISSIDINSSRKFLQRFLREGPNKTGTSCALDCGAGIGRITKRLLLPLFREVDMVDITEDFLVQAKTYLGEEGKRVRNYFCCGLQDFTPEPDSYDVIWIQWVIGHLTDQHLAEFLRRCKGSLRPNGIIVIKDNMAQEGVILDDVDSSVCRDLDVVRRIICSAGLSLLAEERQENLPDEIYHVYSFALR
The assay can be described thus: ITC; affinity of RCC1 peptide with wt NTMT1; conditions, and which of the two was titrated, not told in the text shown. As to conditions: both partners purified. (Isothermal titration calorimetry measures the heat released or taken up as one component is titrated into another.)

B1: RCC1p, peptide of the first 10 N-terminal residues of RCC1 after initial methionine removal (peptide, UniProt P18754 2-11, looked up)
peptide: SPKRIAKRRS
notes: RCC1, the first 10 N-terminal residues after removal of the initial methionine (residues 2-11 counted with the methionine as 1); also called RCC1 peptide; source: synthetic peptide
By Kd is commonly meant a measure of binding affinity in units of concentration. Molecule B1 displayed a Kd of 1.22 ± 0.02 µM.
